In patent US20130079286A1 (Pieris, published 2013):

Tests used:
MBP-Aβ40 fusion protein [1] = target: T1, MBP-Aβ40 fusion protein; assay: SPR (Biacore), MBP-Aβ40 amine-coupled; same experiment as the 1st table, row 20, column 2, printed with more digits
T1 construct: the entry may be a nucleic acid; Biotin-labelled in the capture ELISA, unlabeled in the direct ELISA and SPR; also called MBP-Abeta40
Experimental: (§1) FIG. 8 depicts the kinetic real time analysis of Lcn2 muteins S1-A4 (A) and US7 (B) measured on a Biacore instrument at a flow rate of 10 μl/min. The MBP-Aβ40 fusion protein was coupled via amine chemistry on a CMD 200I chip (ΔRU=1455) and each of the purified Lcn2 muteins was applied in a series at different concentrations. The measured signal is shown as a grey line whereas the curve fit is depicted as a black line in each case.
(§2) Real time analysis of Lcn2 muteins was performed on a Biacore X system (Biacore, Uppsala, Sweden) using PBS/T (PBS containing 0.005% (v/v) Tween 20) as running buffer. A 50 μg/mL solution of MBP-Aβ40 from Example 2 in 10 mM Na-acetate, pH 4.5 was immobilized onto a […] chip (Xantec, Düsseldorf, Germany) using standard amine coupling chemistry, resulting in a ligand density of 1455 resonance units (RU). […] The sensorgrams were corrected by subtraction of the corresponding signals measured for the control channel, which had been activated and blocked with ethanolamine. […] During this step the kₒₙ and koff rates were fitted globally, while the maximum response difference Rₘₐₓ was fitted locally for each curve.

Trx-Aβ28 fusion protein = target: T2, Trx-Aβ28 fusion protein (Escherichia coli (strain K12), UniProt P0AA25 1-76 = thioredoxin, Biotin-labelled through an NHS ester (2:1) in the capture and competitive ELISAs; unlabeled in the direct ELISA and as competitor.); assay: capture ELISA: mutein captured, biotinylated Trx-Aβ28 titrated
T2 construct: the entry may be a nucleic acid; also called TrxAbeta28H6
Experimental: (§3) FIG. 5 depicts the binding activity of the Lcn2 muteins H1-G1, S1-A4, and US7 in capture ELISAs with different biotinylated Aβ targets. StrepMAB-Immo at 10 μg/ml was immobilized on microtitre plates and employed for capturing of 1 JAM Lcn2 muteins via the Strep-tag H. In figures A to C the binding of the Lcn2 muteins S1-A4 and US7 to (A) biotinylated Aβ40, (B) biotinylated Trx-Aβ28, and (C) biotinylated MBP-Aβ40 are shown. Binding was detected by incubation with ExtrAvidin/AP and a subsequent chromogenic reaction with pNPP. Ovalbumin (Ova), thioredoxin (Trx), and maltose binding protein (MBP) were used as negative controls. Additionally, binding of wild-type (wt) lipocalin was tested. The data were fitted to a monovalent binding model.
(§4) For selective capturing of the Lcn2 muteins carrying the C-terminal Strep-tag II (Schmidt and Skerra (2007) Nat. Protoc. 2, 1528-1535), a 96-well MaxiSorp polystyrene microtitre plate (Nunc, Langenselbold, Germany) was coated with 10 μg/mL StrepMAB-Immo (IBA, Göttingen, Germany) in PBS over night at 4° C. and blocked with 3% (w/v) BSA in PBS/T at room temperature for 1 h. After 3 washing steps with PBS/T, 50 μL of a 1 μM solution of the purified Lcn2 muteins from Example 7 were applied to all wells for 1 h. After washing, 50 μL of a dilution series of the biotinylated targets Aβ40, MBP-Aβ40 or Trx-Aβ28 from Example 2 were added and incubated for 1 h whereby the biotinylated forms of Ova, MBP and Trx from Example 2 served as negative control proteins. The wells were washed again and bound conjugate was detected with 50 μL of ExtrAvidin/AP conjugate (Sigma-Aldrich, Steinheim, Germany) diluted 1:5000 in PBS/T for 1 h, followed by signal development in the presence of 100 μL 0.5 mg/mL p-nitrophenyl phosphate (AppliChem, Darmstadt, Germany) in 100 mM Tris/HCl, pH 8.8, 100 mM NaCl, 5 mM MgCl₂.

[2] = target: T3, Aβ40 hexamer VFFAED on SPOT membrane; assay: SPOT membrane, hexameric and decameric peptides
T3 construct: Called a minimal motif found with the hexameric and decameric peptides
T3 peptide: Ac-VFFAED-{SPOT membrane}
Experimental: (§5) The SPOT membrane (Amino-PEG500-UC540 sheet, 100×150 mm, Intavis, Köln, Germany) for mapping the Aβ epitope of the Lcn2 muteins S1-A4 and US7 was prepared in an automated procedure as described by Frank ((2002) J. Immunol. Methods 262, 13-26) using a MultiPep RS instrument (Intavis, Köln, Germany) and activated amino acids from the same vendor. The Aβ40 amino acid sequence (SEQ ID NO: 29) was synthesized on the membrane in successive hexamers, decamers, and pentadecamers, each with a dislocation of 1 amino acid, thus covering the entire sequence. The C-termini of these peptides became covalently attached to the membrane whereas their N-termini were acetylated. Immobilized Strep-tag II served as a positive control for the detection method.
(§6) Prior to use, the membrane was washed once with ethanol, 3 times with PBS (4 mM KH₂PO₄, 16 mM Na₂HPO₄, 115 mM NaCl, pH 7.4), and blocked with 3% (w/v) BSA in PBS/T (PBS containing 0.1% (v/v) Tween 20) for 1 h. […]
(§7) Comparison of the membranes incubated with S1-A4 and wild-type Lcn2, respectively, yielded prominent spots that only occurred upon incubation of the membrane with S1-A4 and not with wild-type Lcn2. […] With the shorter hexameric and decameric peptide sequences binding of S1-A4 to the minimal motives VFFAED and FFAEDV was detected.

[3] = target: T4, Aβ40 hexamer FFAEDV on SPOT membrane; assay: SPOT membrane, hexameric and decameric peptides
T4 construct: Called a minimal motif found with the hexameric and decameric peptides
T4 peptide: Ac-FFAEDV-{SPOT membrane}
Experimental: as §5, §6, §7

[4] = target: T5, biotinylated Aβ40 peptide (human, C-terminal biotin group attached via a lysine spacer); assay: capture ELISA: mutein captured via Strep-tag II on StrepMAB-Immo, biotinylated Aβ40 titrated
T5 construct: Synthetic peptide (Peptide Speciality Laboratory) with a C-terminal biotin on a lysine spacer; used in the capture ELISAs
T5 sequence (peptide, as listed by the source): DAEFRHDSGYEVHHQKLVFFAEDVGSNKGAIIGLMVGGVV
Experimental: as §3, §4

MBP-Aβ40 fusion protein [5] = target: T1, MBP-Aβ40 fusion protein; assay: SPR (Biacore), MBP-Aβ40 amine-coupled (1455 RU), mutein as analyte
Experimental: as §1, §2

B1: Lcn2 mutein S1-A4 (designed binder)
chain: QDSTSDLIPAPPLSKVPLQQNFQDNQFHGKWYVVGVAGNYTLREDKDPLKMYATIYELKEDKSYNVTSVGFRLKKCNYKIRTFVPGSQPGEFTLGIIKSQPGMTSYLVRVVSTNYNQHAMVFFKTVGQNREMFNITLYGRTKELTSELKENFIRFSKSLGLPENHIVFPVPIDQCIDG
With B1 the Kd (MBP-Aβ40 fusion protein [1]) was 1.74 nM, the Kd (Trx-Aβ28 fusion protein) was 1.9 nM and the binding result [2] was “binds”. For the same binder, the binding result [3] was “binds”, the Kd [4] was 2.7 nM and the koff (MBP-Aβ40 fusion protein [5]) was 8.36e-05 s⁻¹. For the same binder, the kon (MBP-Aβ40 fusion protein [5]) was 48000 M⁻¹ s⁻¹.
